Molecular target: S protein of the SARS-CoV-2 prototype strain on pseudo-virus (SARS-CoV-2 prototype strain) (UniProt P0DTC2)
Test: cell-based or functional assay

Chain of LY-CoV1404 (antibody) (VH): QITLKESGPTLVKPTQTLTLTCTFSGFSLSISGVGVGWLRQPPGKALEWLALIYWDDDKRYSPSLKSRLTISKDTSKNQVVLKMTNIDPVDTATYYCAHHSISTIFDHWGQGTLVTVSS
Chain of LY-CoV1404 (antibody) (VL): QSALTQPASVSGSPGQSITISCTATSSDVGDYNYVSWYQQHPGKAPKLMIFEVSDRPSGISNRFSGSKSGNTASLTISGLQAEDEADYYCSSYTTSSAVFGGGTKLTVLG

LY-CoV1404 (antibody)
Neutralization activity (IC50) against pseudo-virus: 1.19 ng/mL
